Reference: publication PMC6321638 (2018)

Target: ALG-2 delta3-23 (Homo sapiens, UniProt O75340, Ca2+)
Experiment: ITC

ALG-2 delta3-23, sequence (O75340 3-23, stated change not applied): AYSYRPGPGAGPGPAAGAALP

B1: SOUL (protein)
chain: AEPLQPDPGAAEDAAAQAVETPGWKAPEDAGPQPGSYEIRHYGPAKWVSTSVESMDWDSAIQTGFTKLNSYIQGKNEKEMKIKMTAPVTSYVEPGSGPFSESTITISLYIPSEQQFDPPRPLESDVFIEDRAEMTVFVRSFDGFSSAQKNQEQLLTLASILREDGKVFDEKVYYTAGYNSPVKLLNRNNEVWLIQKNEPTKENE
Kd: 32.4 nM
